Assay results: the supplement of paper PMC9170038

test system: MS2 coat protein; assay: apparent KD of MS2 coat protein, switch ON state; designed switch direction (-1 OFF switch, 1 ON switch): -1; higher = weaker reporter binding; details: FMN input: 0 or 200 uM; Eterna round: R93 (includes R88 designs)
Procedure, shortened: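 Designed RNA switches were transcribed on-chip from Illumina sequencing clusters and titrated with SNAP-549-labelled MS2 coat protein in twofold steps from 0.7 or 1.5 nM up to 3 µM. Each step lasted 0.8–1.5 h at first and 10–20 min by the end, in 100 mM Tris-HCl pH 7.5, 80 mM KCl and 4 mM MgCl2, without or with constant ligand. Apparent KD is the median, for each design, of fits to normalised cluster binding curves.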

| Sequence | apparent KD of MS2 coat protein |
| --- | --- |
| AGCUAGCAAGGAUAUACGAACAUGUCAAAAGACGUGAAGGGACAUGAGGAUCACCCAUGUAGAAGGUGCUAGCA [JL 74% mod 8] | 36.6 nM |
| AACUGCGCAGGAUAUACAUGAGGAUCACCCAUGUAAAGAAAAGAAAGAUCCGAAGAAAGUAGAAGGGCGUGGAA [Variant 2 of Mod 1 of Ex3 sub 3, by Tesla's Dusciple Round 1] | 43.2 nM |
| AAAAAGGCAGGAUAUACGAAACUAAGACAAAUAAGAAAGGGACAUGAGGAUCACCCAUGUAGAAGGGCCAAAAA [Exclusion 2-01... 60% 4] | 49.1 nM |
| AAAACACAUGAGGAUCACCCAUGUGAGGAUAUCGUGCAGUAGACGAAAGUCUACUGCACGAGAAGGCACAAGGA [Tweaking Brourd] | 33 nM |
| UAAAGACAUGAGGAUCACCCAUGUGAGGAUAUAGGUGUAUGCAAAAAAAAGCAAAAAACUAGAAGGCACAGAAA [JR_Exc001_Sub304] | 59.6 nM |
| AAGAAGAGAGGAUAUACAUGAGGAUCACCCAUGUAAAAGAAAGAAAAGGGAAAGAAAAGUAGAAGGCUCAAGAA [Aakheperrure Amenhotep II] | 26.4 nM |
| AACAAUACAGGAUAUACAUGAGGAUCACCCAUGUGAGAAUUAAGUGGCGUACCACAAGGUAGAAGGGUAAUGGA [Ruby 2] | 22.4 nM |
| AAAUUGUCAGGAUAUCUUAGAACUGUCAAAGACAGGAGCUAAGAGAAGGGACAUGAGGAUCACCCAUGUAAAAC [May 90] | 64 nM |
| AUCUAGUCAGGAUAUCGAUGAAAUGAAGUGAAAGAAAAGAACGAGAAGGGACAUGAGGAUCACCCAUGUUAGAA [EteRNA is fun!] | 31.2 nM |
| GGCUAGUCAGGAUAUACGAACAUGUCAAAAGACGUGAAGGGACAUGAGGAUCACCCAUGUAGAAGGGACUAGCG [salish99-ex2-13] | 32.8 nM |
| AGCUAGUCAGGAUAUACGAACAUGUCAAAAGACGUGAAGGGACAUGAGGAUCACCCAUGUAGAAGGGACUAGCU [salish99-Ex2-20] | 28.8 nM |
| AAAAAACAUGAGGAUCACCCAUGUGAGGAUAUGCAAAAGAAAAGAAAAGAAAGAAGAAGCAGAAGGCACAAGAA [Djedefra] | 29.4 nM |
| UAAAACAGAGGAUAUACAUGAGGAUCACCCAUGUAAAAAUGUAGAAGGCUGAAAUAAAUAAGAAGGAAAUAAAA [Meechl Ex3 R2 m1] | 24.8 nM |
| AAAAAGGGAGGAUAUACAUGAGGAUCACCCAUGUAAAAAAAAACAAAAAAAAAAAAAAGUAGAAGGCCCAAAAA [here you go] | 52.3 nM |
| AACAAACAUGAGGAUCACCCAUGUCAGGAUAUGCAAACAACAAACAACAAACAACAAAGCAGAAGGGACGACAA [63%, Olong, 3] | 21.7 nM |
| AAGAAGUGAGGAUAUACAUGAGGAUCACCCAUGUAAAAGAAAGAAAAGGGAAAGAAAAGUAGAAGGCACAAGAA [Maatkare Hatshepsut] | 36.2 nM |
| CAAAGGUGAGGAUAUACAUAACUAUGACGAAAGUCAUAAACACAUGAGGAUCACCCAUGUAGAAGGCACCACAA [e2] | 32.6 nM |

| Sequence | apparent KD of MS2 coat protein |
| --- | --- |
| AAAUGACAUGAGGAUCACCCAUGUCAGGAUAUGACUUGAAAAAUAAAAUAAAAACAUGUCAGAAGGGACAUGGA [Design 51: Sub-opt GB] | 23.9 nM |
| AAGAAGUCAGGAUAUCGAAGACAGACGAAAAGUCUGUCAAACGAGAAGGGACAUGAGGAUCACCCAUGUAAAGA [Mat - Exaclusion 4 - Eli mod - D73] | 63.1 nM |
| AACAUGUAAGGAUAUGAAAGAAAAGAAAAGAAAGAAAAGAAUCAGAAGGUACAUGAGGAUCACCCAUGUAAGAA [EteRNA is fun!] | 34.7 nM |
| AAAAAAAGAGGAUAUACGAACAUGUCAAAAGACGUGAAGGGACAUGAGGAUCACCCAUGUAGAAGGCUUAAAAA [JL Part Open 28] | 38.7 nM |
| AGCAAACAUGAGGAUCACCCAUGUCAGGAUAUGAACGAAAAUAAAUAAAAAUAAAAGUUCAGAAGGGACGAGCA [66%, Wbt, 25] | 43.2 nM |
| AAGAAUCGAGGAUAUACAAAAUAAAAGAAAAGAAAGAAAGAACAUGAGGAUCACCCAUGUAGAAGGCGAAAGAA [Khaneferre Sobekhotep IV] | 30.3 nM |
| AAAAAGAUAGGAUAUACGUACAUGUCAAAAGACGUGAAGGGACAUGAGGAUCACCCAUGUAGAAGGAUUAAAAA [JL Wide Open 40] | 31.6 nM |
| AAAUUGUCAGGAUAUCUUAGAAUAGUCAAAGACUAGAGCUAAGAGAAGGGACAUGAGGAUCACCCAUGUAAAAC [May 91] | 61.8 nM |
| AUAAUGUGAGGAUAUACAUGAGGAUCACCCAUGUAAUUAAAAAGGAGAGAAACAAUACGUAGAAGGUACAUUUA [JR_Exc003_Sub510] | 26.7 nM |
| AACAGUACAGGAUAUACAUGAGGAUCACCCAUGUAAAAAUAAAAGGGAAACUCAAAAAGUAGAAGGGUACUGGA [Moding Maslow revisited (73) 13] | 117 nM |
| AAAGGACAUGAGGAUCACCCAUGUGAGGAUAUCGGAAAAGGAAAAAAAAAAAAGAAGACGAGAAGGCACACCAA | 38.8 nM |
| AAAAAACAUGAGGAUCACCCAUGUGAGGAUAUGAACGAAAAUAAAUAAAAAUAAAAGUUCAGAAGGUACGAAAA [66%, Wbt, 3] | 25.2 nM |
| CAGUACUGAGGAUAUACAUGAGGAUCACCCAUGUAAAAAACCUACGAAAGUAGGAAAUGUAGAAGGCAGUACUG [Ex3: 803] | 16.4 nM |
| GGUUGGCGAGGAUAUACAUGAGGAUCACCCAUGUGAGAGAAAAAAGUGAGGAGGAGGAGUAGAAGGCGCUGACG [salish99-ex3-18] | 28.4 nM |
| AAACUGGUAGGAUAUGCUAGGGCGAUUAAUACGCCGAUAGUACAUGAGGAUCACCCAUGUAGAAGGGCCAGAAA [Mat - Exclusion 2 - JL mod - D65] | 30.8 nM |
| AAAAAGUCAGGAUAUGCAGAAAAAAAAACGAAAAAAAAACUGCAGAAGGGACAUGAGGAUCACCCAUGUUAAAA [Ex 4 May 14] | 30.8 nM |
| AAAUACUAAGGAUAUACAUGAGGAUCACCCAUGUACAAACCCGUGGAACGGAUCCUUAGUAGAAGGUGGACGAA [Onquerar] | 13.6 nM |
